These results are taken from the DeepSol protein solubility set.

This series can be described thus: soluble on expression in E. coli; label from the status in PepcDB or PDB records.
With “MDIPQTKQDLELPKLAGTWHSMAMATNNISLMATLKAPLRVHITSLLPTPEDNLEIVLHRWENNSCVEKKVLGEKTENPKKFKINYTVANEATLLDTDYDNFLFLCLQDTTTPIQSMMCQYLARVLVEDDEIMQGFIRAFRPLPRHLWYLLDLKQMEEPCRF”, the “soluble on expression in E. coli” value is recorded as “soluble”.

“MSLDEKLRTSGVQVIGDIAWGTHFCQFYRTQEELVNVVCPYLKAGLEGNELCIWALPRDFETKKEAEGPLRRTIPKLDIYLEKGQMEIISYKDRYAEKEIPDSKKALENLIKKADYALLNGYSGLRLVQDTSWLKNDWKNLTGYEEELDIAIENRRITALCTYSSGKFDTDETIYAALSHRFVLVKKEGNWEKVENPRLKKAEERVIQPSEEVETKTEEENENLKKLLEERTVELTEAYKSLKVNEKQFLQIRKMTHIGNWKWDILTGELHWSDEVYRIFGRDPERFKATCDAFLGSVHPDDREYLINSIKKDFDEQIRNIDYRIVLPDGEERTVRTRVEITFDEENQPVRAEGIVQDITELKRIEKALQEREEQYRAFFENSMDAVLFASPDGTIHAANKAACKTFGMTEKEIIRAGRNGIVDQSDPRLKPSLEERNSTGRFKGEINHKRKDGTIFPGEVSTALFKDKNGLMKIVIIIRDITERKKAEEVLRKSEEHYRMLFTNEGHHHHHH”: the “soluble on expression in E. coli” value is “soluble”.

As for “NHPTRPCTCAPGQVEKYLSRISGPLLDRIDIQVEITPVPFEKISDSRPAESSEKIRQRVVAAREIQSKRFADYSGVHCNAQMDDKLMNRYALPDEKGLQRLRTAMERFDLSARAYGRILKVARTIADLAGSEDVGGEHIAEAIGYRNLDRENWGKA”, the “soluble on expression in E. coli” value is “not soluble”.

As to “MENEQQQAQTAPSCRAGCGFFGASATEGYCSQCFKNTLKRQQDTVRLTSPVVSPSSMAATSSALKSEPSSVDMCMKAAVSVSDETAKMDCEDIINVCDQINDDSVTVAESTAPTTITVDVPVPVKKANRCHMCKKRVGLTGFSCRCGGLYCGDHRYDQAHNCQFDYKTMERETIRKNNPVVVSDKVQRI”, the “soluble on expression in E. coli” value was “soluble”.

As to “VATLNESIEAGLEPGAVALILEAFPIEDRVRLWRALPLELHIDVLTEMRADVRFSIINALSEVELKLTLAKLDNLSLIEWADSLPESIINEALALIEKDELELYDQANEYEDDELGRWAERKIITLPFNITVGTAKQLMERYSYDTPQQVYLINRNKQFRGAVNYYEILRSDSGVRLKTLEIETVTVLDSKMTLPEAVEALEHSALPALPVTDADQTLIGEVDWQFALSTQREIYEARLMAGTGMDEGDDLFAPVLKSSQKRGV”, the “soluble on expression in E. coli” value is on record as “not soluble”.

With “MARRISEPAREIDIIHETDVLVVGSGPGGLPAALAAARAGAEVTLVERFGCFGGNLTVVGVEGMHWYRHEQTIESNGIAREFEEKAKEMGAAVPESQSLSHEIDSEGFKLVADRMVLDEPNIRPMLHRFFVAPLMEGDTIIGIVTESKSGREAILARRVIDATGDADVVTRAGAPVYKTPAEQMMAASVMFHLAGVDKQRFMDGIKADPQTYRDWGGGGEWNIETSGKEDDMFSPFLKKPFQQAIRDGLIPPHLNTIAGTWGAVHDTGELTYMNLIHLDGCDGTDPDSLTTYEIEGRRQTMLAIEALRRYTPGCENIRLRNFGMSIGIRDTRKVDCLYNMTETDVREQGRFEDSIGIFPEFIDGYGILILPTTGRYFQMPYRNLLPRGVKNLLVAGRITGGDRISHAATRNMACCAVTGQGAGIAAALSVKSNRPLDEIDPLLIQKELERQGGRHHLEHHHHHH”, the “soluble on expression in E. coli” value is “not soluble”.

For “MPSKTFLLTHTFKDISKLGEGESYYSDIEIRYNIPWSIQVFKNESFLGLLLNCEKEELLEKKKWSLQVKFTMKLVAVSGKFFQRTVKNEFQNPEGHGMDKFISWENMLRDYVNNDSIVIEINADIVSSSGFFKHKYSPCSQSYSGKSFVLKHNFKNRRFVEAERCFSDIEEHYNVPWRLRIQKYKKGFLGIHLLCEKETCDGRSWSIQCDYELQLISSKGKCYSRHSTFNFEKPGGNYQEVEFINWKVMEEEYMDSDSICVEAHVKICKTQELPCNILSTHRKFVLSHTVRNISSINGGNVYFTDIETRFNVPWKLSFVRQSGFIELYLRCEKKQCLSRTWSIEAEFTLKLVSPHGRSLSLRKIYSFEKSIGNGYSKVMRWDEMKDKYVVDNSIIIEAHVKILNMTGIESETTIKKTSGFTIPVGDMEYSMEKWMEMAFDH”, the “soluble on expression in E. coli” value is reported as “not soluble”.
